Test results as given in patent publication US20190322724.

Tested on: blocking anti-c-Src monoclonal antibodies

| Substance | TIMP-2 tyrosine phosphorylation in HT1080 CM (pulldown, anti-phos-Tyr immunoblot) | TIMP-2 tyrosine phosphorylation in SYF+c-Src CM (pulldown, anti-phos-Tyr immunoblot) |
| --- | --- | --- |
| secreted c-Src (e-Src) in conditioned media of HT1080 human fibrosarcoma cells | TIMP-2 tyrosine phosphorylation was abolished | – |
| secreted c-Src (e-Src) in conditioned media of SYF+c-Src cells | – | TIMP-2 tyrosine phosphorylation was abolished |
